From PMC9575183 (Developmental cell, 2020) come the findings set out here.

The target of the assay is T1, Recombinant GST-RILP wt, full length (human, UniProt Q96NA2 1-401).
T1 sequence (looked up): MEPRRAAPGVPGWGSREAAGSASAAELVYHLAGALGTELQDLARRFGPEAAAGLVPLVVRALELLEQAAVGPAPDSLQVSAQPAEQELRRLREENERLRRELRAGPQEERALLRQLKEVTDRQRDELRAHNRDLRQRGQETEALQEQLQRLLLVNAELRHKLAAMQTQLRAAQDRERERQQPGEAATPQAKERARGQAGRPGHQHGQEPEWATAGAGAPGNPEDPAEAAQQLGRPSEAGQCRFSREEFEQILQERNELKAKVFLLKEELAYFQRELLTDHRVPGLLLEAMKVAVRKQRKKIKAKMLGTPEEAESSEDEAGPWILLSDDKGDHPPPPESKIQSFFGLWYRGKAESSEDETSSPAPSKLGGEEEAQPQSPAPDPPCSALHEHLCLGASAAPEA
Put plainly: pull-down.

B1: Recombinant human His-tagged ATG5 (natural protein, UniProt Q9H1Y0 1-275, looked up)
chain: MTDDKDVLRDVWFGRIPTCFTLYQDEITEREAEPYYLLLPRVSYLTLVTDKVKKHFQKVMRQEDISEIWFEYEGTPLKWHYPIGLLFDLLASSSALPWNITVHFKSFPEKDLLHCPSKDAIEAHFMSCMKEADALKHKSQVINEMQKKDHKQLWMGLQNDRFDQFWAINRKLMEYPAEENGFRYIPFRIYQTTTERPFIQKLFRPVAADGQLHTLGDLLKEVCPSAIDPEDGEKKNQVMIHGIEPMLETPLQWLSEHLSYPDNFLHISIIPQPTD
Take B1: the binding result was “binds”.
